The source of these data is publication PMC6717114 (Biochemical Journal, 2019).

In this experiment the target is Mouse Pcdh15 EC1-2 wild-type (mouse, UniProt Q99PJ1-18 27-259). The experiment in a line: single-molecule force spectroscopy.

B1: Mouse Cdh23 EC1-2 wild-type (domain or fragment, UniProt Q99PF4 24-228, looked up)
chain: QVNRLPFFTNHFFDTYLLISEDTPVGSSVTQLLARDMDNDPLVFGVSGEEASRFFAVEPDTGVVWLRQPLDRETKSEFTVEFSVSDHQGVITRKVNIQVGDVNDNAPTFHNQPYSVRIPENTPVGTPIFIVNATDPDLGAGGSVLYSFQPPSPFFAIDSARGIVTVIQELDYEVTQAYQLTVNATDQDKTRPLSTLANLAIIITD
B1: the koff turned out to be 0.0045 s⁻¹.
